B1: Cu, Zn superoxide dismutase 1 (SOD1) H46Q-G108H, de-metallated (enzyme)
chain: not shown
B2: Cu, Zn superoxide dismutase 1 (SOD1) F20L-H46Q, de-metallated (enzyme)
chain: not shown

Molecular target: the molecule itself
Test: SEC + native gel or EMSA

Protein	stoichiometry N
B1	3
B2	3

Source: paper doi:10.1101/2021.08.17.456705 (bioRxiv, 2021)
